# US20230125550A1 (ARCELLX, published 2023)
# Molecular target: T1, recombinant human CD123-Fc (human, UniProt P26951 19-305)
# T1 construct: not shown: Fc part of CD123-Fc
# T1 sequence: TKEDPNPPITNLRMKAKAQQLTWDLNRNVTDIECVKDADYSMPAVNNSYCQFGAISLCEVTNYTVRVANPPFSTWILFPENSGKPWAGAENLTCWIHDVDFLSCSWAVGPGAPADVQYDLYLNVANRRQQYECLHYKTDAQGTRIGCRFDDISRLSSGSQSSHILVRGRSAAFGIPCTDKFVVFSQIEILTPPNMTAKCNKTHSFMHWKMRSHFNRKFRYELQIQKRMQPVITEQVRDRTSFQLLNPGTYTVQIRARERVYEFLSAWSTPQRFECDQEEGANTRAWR
# Assay: phage ELISA, captured CD123-Fc
# How it was run: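 Readout is the clone-averaged A450 ratio of target-Fc over IgG1-Fc wells, detected with HRP-conjugated anti-M13. Each Fc protein (5 nM) was captured on goat anti-human IgG1-Fc-coated plates. Phage were rescued with VCSM13 from BCMA-panning colonies and added at 5× dilution.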
row,Binder,ELISA_avg
1,"SEQ ID NO: 520 (designed binder, D domain, on phage) MGSWHWFKEELAEIKEDLVALGGSEAELAWFEYDIAMFELSLQNYKGKGNPEVEALRKEAAAIRDELQAYRHN",3.1 ratio A450 target/IgG1-Fc
2,"SEQ ID NO: 521 (designed binder, D domain, on phage) MGSWNDFKEELAWIKFDLEALGGSEAELAWFEEDIAMFEQQLQAYKGKGNPEVEALRKEAAAIRDELQAYRHN",3.8 ratio A450 target/IgG1-Fc
3,"SEQ ID NO: 530 (designed binder, D domain, on phage) MGSWSWFQWDLAGIKDHLEALGGSEAELAEFESEIAYFEDELQWYKGKGNPEVEALRKEAAAIRDELQAYRHN",12.9 ratio A450 target/IgG1-Fc
4,"SEQ ID NO: 531 (designed binder, D domain, on phage) MGSWTEFKGELAEIKWILEALGGSEAELAFFEDEIAAFEWDLQKYKGKGNPEVEALRKEAAAIRDELQAYRHN",8.2 ratio A450 target/IgG1-Fc
5,"SEQ ID NO: 532 (designed binder, D domain, on phage) MGSWFEFKWTLALIKQELEALGGSEAELADFEQEIAEFEWWLQTYKGKGNPEVEALRKEAAAIRDELQAYRHN",4.9 ratio A450 target/IgG1-Fc
6,"SEQ ID NO: 528 (designed binder, D domain, on phage) MGSWFQFKEFLAMITHNLEALGGSEAELAEFEHDIALFESELQQYKGKGNPEVEALRKEAAAIRDELQAYRHN",3.1 ratio A450 target/IgG1-Fc
7,"SEQ ID NO: 514 (designed binder, D domain, on phage) MGSWIWFKDWLADIKDLLEALGGSEAELAEFEYDIALFEDQLQAYKGKGNPEVEALRKEAAAIRDELQAYRHN",7.3 ratio A450 target/IgG1-Fc
8,"SEQ ID NO: 523 (designed binder, D domain, on phage) MGSWDEFKEDLAHIKTDLEALGGSEAELALFEDEIADFEMYLQHYKGKGNPEVEALRKEAAAIRDELQAYRHN",6.3 ratio A450 target/IgG1-Fc
9,"SEQ ID NO: 515 (designed binder, D domain, on phage) MGSWGWFKHELAFIKADLEALGGSEAELAWFEEEIAEFEYELQFYKGKGNPEVEALRKEAAAIRDELQAYRHN",3.3 ratio A450 target/IgG1-Fc
10,"SEQ ID NO: 516 (designed binder, D domain, on phage) MGSWTWFKDNLAWIKEDLEALGGSEAELAWFELEIASFETALQDYKGKGNPEVEALRKEAAAIRDELQAYRHN",6.9 ratio A450 target/IgG1-Fc
11,"SEQ ID NO: 517 (designed binder, D domain, on phage) MGSWTYFKNDLAGIKEDLEALGGSEAELAQFEFEIAEFEWLLQDYKGKGNPEVEALRKEAAAIRDELQAYRHN",3.6 ratio A450 target/IgG1-Fc
12,"SEQ ID NO: 518 (designed binder, D domain, on phage) MGSWTWFKWDLADIKGDLEALGGSEAELAFFEEEIAEFEWRLQDYKGKGNPEVEALRKEAAAIRDELQAYRHN",5.9 ratio A450 target/IgG1-Fc
13,"SEQ ID NO: 527 (designed binder, D domain, on phage) MGSWVVFKQDLADINHQLEALGGSEAELAWFEWEIADFEWELQHYKGKGNPEVEALRKEAAAIRDELQAYRHN",3.6 ratio A450 target/IgG1-Fc
14,"SEQ ID NO: 537 (designed binder, D domain, on phage) MGSWYEFDHRLDAIYQRLWALGGSEAELAEFEYGIAEFEEYLQDYKGKGNPEVEALISEAWAIEWELSAYRHN",4.6 ratio A450 target/IgG1-Fc
15,"SEQ ID NO: 497 (designed binder, D domain, on phage) MGSWYYFKDELADIKWDLEALGGSEAELAWFEMLIAQFELDLQWYKGKGNPEVEALRKEAAAIRDELQAYRHN",4 ratio A450 target/IgG1-Fc
16,"SEQ ID NO: 499 (designed binder, D domain, on phage) MGSWYQFKHDLADIKYGLEALGGSEAELAWFEDDIADFELDLQYYKGKGNPEVEALRKEAAAIRDELQAYRHN",4.7 ratio A450 target/IgG1-Fc
17,"SEQ ID NO: 498 (designed binder, D domain, on phage) MGSWMYFKDTLADIKWYLEALGGSEAELAFFEDWIAEFEDDLQVYKGKGNPEVEALRKEAAAIRDELQAYRHN",3.1 ratio A450 target/IgG1-Fc
18,"SEQ ID NO: 509 (designed binder, D domain, on phage) MGSWYQFKTELAWIKDDLEALGGSEAELAWFEWVIADFEDDLQFYKGKGNPEVEALRKEAAAIRDELQAYRHN",6.6 ratio A450 target/IgG1-Fc
19,"SEQ ID NO: 500 (designed binder, D domain, on phage) MGSWYVFKDDLADIKYMLEALGGSEAELAWFEWEIANFEFDLQYYKGKGNPEVEALRKEAAAIRDELQAYRHN",3.8 ratio A450 target/IgG1-Fc
20,"SEQ ID NO: 522 (designed binder, D domain, on phage) MGSWWDFKDWLAEIKHDLEALGGSEAELALFESEIADFEFGLQWYKGKGNPEVEALRKEAAAIRDELQAYRHN",4.2 ratio A450 target/IgG1-Fc
21,"SEQ ID NO: 505 (designed binder, D domain, on phage) MGSWFMFKQELAWIKEDLEALGGSEAELADFEWDIAEFEWDLQYYKGKGNPEVEALRKEAAAIRDELQAYRHN",7.2 ratio A450 target/IgG1-Fc

row,Binder,ELISA_avg
1,"SEQ ID NO: 506 (designed binder, D domain, on phage) MGSWQIFKGELAYIKQYLEALGGSEAELAFFEFDIAEFEEDLQYYKGKGNPEVEALRKEAAAIRDELQAYRHN",4.7 ratio A450 target/IgG1-Fc
2,"SEQ ID NO: 507 (designed binder, D domain, on phage) MGSWDFFKEELAEIKHYLEALGGSEAELAFFEFWIADFEQDLQEYKGKGNPEVEALRKEAAAIRDELQAYRHN",3.7 ratio A450 target/IgG1-Fc
3,"SEQ ID NO: 508 (designed binder, D domain, on phage) MGSWFNFKEELAVIKFQLEALGGSEAELAFFEWVIADFEDDLQEYKGKGNPEVEALRKEAAAIRDELQAYRHN",6.1 ratio A450 target/IgG1-Fc
4,"SEQ ID NO: 534 (designed binder, D domain, on phage) MGSWAEFKQRLAAIKTRLEALGGSEAELAAFEWEIVAFFSELFAYKGKGNPEVEALRDEAIAIETELVAYRHN",3.6 ratio A450 target/IgG1-Fc
5,"SEQ ID NO: 524 (designed binder, D domain, on phage) MGSWDFFKYDLANINEWLEALGGSEAELADFEYGIADFELWLQDYKGKGNPEVEALRKEAAAIRDELQAYRHN",5.5 ratio A450 target/IgG1-Fc
6,"SEQ ID NO: 535 (designed binder, D domain, on phage) MGSWWEFDHRLTAIDTRLQALGGSEAELAEFESSIAEFEWWLQDYKGKGNPEVEALFAEAEAIYVELDAYRHN",4.3 ratio A450 target/IgG1-Fc
7,"SEQ ID NO: 536 (designed binder, D domain, on phage) MGSWWEFQFRLYAIDQRLLALGGSEAELAEFEQDIADFEWMLQDYKGKGNPEVEALMLEADAIEAELKAYRHN",3.1 ratio A450 target/IgG1-Fc
8,"SEQ ID NO: 502 (designed binder, D domain, on phage) MGSWHWFKIVLADIKDGLEALGGSEAELAYFETTIADFEMDLQHYKGKGNPEVEALRKEAAAIRDELQAYRHN",4.3 ratio A450 target/IgG1-Fc
9,"SEQ ID NO: 503 (designed binder, D domain, on phage) MGSWHWFKIVLADIKDGLEALGGSEAELAYFETTIADFEMDLHHYKGKGNPEVEALRKEAAAIRDELQAYRHN",3.5 ratio A450 target/IgG1-Fc
10,"SEQ ID NO: 538 (designed binder, D domain, on phage) MGSWYEFDMRLDAIWERLTALGGSEAELADFEQYIAEFERQLQDYKGKGNPEVEALFDEAWAIEDELYAYRHN",13.7 ratio A450 target/IgG1-Fc
11,"SEQ ID NO: 525 (designed binder, D domain, on phage) MGSWYQFKDDLAHIKHLLEALGGSEAELAVFEYIIADFESFLQIYKGKGNPEVEALRKEAAAIRDELQAYRHN",4 ratio A450 target/IgG1-Fc
12,"SEQ ID NO: 519 (designed binder, D domain, on phage) MGSWLYFKEYLADIKSDLEALGGSEAELAWFEYEIADFEEQLQYYKGKGNPEVEALRKEAAAIRDELQAYRHN",3.7 ratio A450 target/IgG1-Fc
13,"SEQ ID NO: 501 (designed binder, D domain, on phage) MGSWNFFKYDLADIMAYLEALGGSEAELAFFEDEIANFEHDLQKYKGKGNPEVEALRKEAAAIRDELQAYRHN",4.4 ratio A450 target/IgG1-Fc
14,"SEQ ID NO: 533 (designed binder, D domain, on phage) MGSWAEFKQRLAAIKTRLEALGGSEAELAAFMDEIMAFEWELWAYKGKGNPEVEALMNEAFAIDVELYAYRHN",3.4 ratio A450 target/IgG1-Fc
15,"SEQ ID NO: 512 (designed binder, D domain, on phage) MGSWWLFKEQLALIKYNLEALGGSEAELADFESWIAEFEHQLQEYKGKGNPEVEALRKEAAAIRDELQAYRHN",4.1 ratio A450 target/IgG1-Fc
16,"SEQ ID NO: 526 (designed binder, D domain, on phage) MGSWAEFKHDLADIKRELEALGGSEAELAWFELSIAFFEDELQHYKGKGNPEVEALRKEAAAIRDELQAYRHN",3.3 ratio A450 target/IgG1-Fc
17,"SEQ ID NO: 529 (designed binder, D domain, on phage) MGSWHWFKEDLAMITDVLEALGGSEAELAAFESEIAVFEADLQYYKGKGNPEVEALRKEAAAIRDELQAYRHN",5.2 ratio A450 target/IgG1-Fc
18,"SEQ ID NO: 513 (designed binder, D domain, on phage) MGSWHVFKTELADIKFYLEALGGSEAELAMFELWIAEFEHELQDYKGKGNPEVEALRKEAAAIRDELQAYRHN",5.4 ratio A450 target/IgG1-Fc
19,"SEQ ID NO: 510 (designed binder, D domain, on phage) MGSWFEFKDYLADIKWDLEALGGSEAELAIFEHDIAYFEHNLQQYKGKGNPEVEALRKEAAAIRDELQAYRHN",3.8 ratio A450 target/IgG1-Fc
20,"SEQ ID NO: 511 (designed binder, D domain, on phage) MGSWVRFKDFLADIKMDLEALGGSEAELADFEYHIAEFEHNLQEYKGKGNPEVEALRKEAAAIRDELQAYRHN",5.8 ratio A450 target/IgG1-Fc
21,"SEQ ID NO: 504 (designed binder, D domain, on phage) MGSWFMFKEELADIKDWLEALGGSEAELASFESYIAWFEQDLQWYKGKGNPEVEALRKEAAAIRDELQAYRHN",5.7 ratio A450 target/IgG1-Fc
